Blank lines part the entries; values can stand above or below the binder they belong to. Where no end group is shown, it is not given here. Side-chain parts run from the residue outwards. [ ]: non-standard residue; d: D form. The star is where a group is joined. O‑CO‑N‑SO2‑IQ = carbamate-linked N-sulfonyl 5-aminoethylsulfonamide isoquinoline (O-CO-N-SO2-IQ); SO2‑IQ = 5-aminoethylsulfoneamide isoquinoline, O=S(=O)(NCCN*)c1cccc2cnccc12; X1 = 5‑aminoethylsulfonamide isoquinoline, O=S(=O)(NCCN*)c1cccc2cnccc12; S‑IQ = 5-mercaptoaminopropyl isoquinoline; hLeu = CC(C)CC[C@H](N)C(=O)O; GltNH2 = not defined here; Nle = CCCC[C@H](N)C(=O)O; Orn = NCCC[C@H](N)C(=O)O; bGaba = not defined here; Dab = NCC[C@H](N)C(=O)O; Nva = CCC[C@H](N)C(=O)O; Abu = CC[C@H](N)C(=O)O; Dap = NC[C@H](N)C(=O)O; Ph2 = not defined here; GlyNH2 = aminoglycine; Ava = NCCCCC(=O)O; βAla = NCCC(=O)O
Columns and labels:
Experiment in all cases: cell-based or functional assay
[1] = molecular target: protein kinase B, P31749
protein kinase B, P31749, sequence (P31749 whole entry): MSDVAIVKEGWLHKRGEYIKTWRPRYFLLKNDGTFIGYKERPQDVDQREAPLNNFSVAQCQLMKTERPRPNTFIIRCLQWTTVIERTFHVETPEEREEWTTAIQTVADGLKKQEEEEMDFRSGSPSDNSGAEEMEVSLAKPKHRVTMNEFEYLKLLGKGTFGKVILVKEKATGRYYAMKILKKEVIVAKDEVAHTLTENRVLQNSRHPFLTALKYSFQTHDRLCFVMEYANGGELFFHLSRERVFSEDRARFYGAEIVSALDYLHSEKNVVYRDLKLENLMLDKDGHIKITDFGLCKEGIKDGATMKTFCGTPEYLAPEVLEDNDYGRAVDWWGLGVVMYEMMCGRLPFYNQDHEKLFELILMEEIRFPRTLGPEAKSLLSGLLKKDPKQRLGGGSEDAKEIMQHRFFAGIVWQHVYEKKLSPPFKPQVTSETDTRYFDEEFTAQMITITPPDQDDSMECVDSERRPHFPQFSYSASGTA

[2] = molecular target: protein kinase B (UniProt P31749)
protein kinase B, sequence (P31749 whole entry): as above

[3] = molecular target: protein kinase A, catalytic subunit

Binder: RPR[Nle]E([βAla-SO2‑IQ])SF [PTR 6086]
- PKB IC50 [1]: 0.57 µM

Binder: RPRTE([βAla-S‑IQ])SF [PTR 6102]
- IC50 PKB [1]: 0.3 µM
- PKB IC50 [1]: 0.3 µM

Binder: RPR[Nle]SS[Nle] [AR 60003-62]
- % inhibition at 1 µM [1]: 70%
- Activity PKB [1]: < 1 µM

Binder: RPRT[Abu][Dap]F [60002-88]
- % Inhibition PKA [3]: -3%
- % Inhibition PKB I [2]: 40%

Binder: RPRT[Dap]SF (not fully specified (residue 5)) [PTR 6106]
- PKB IC50 [1]: 10 µM

Binder: RPR[Orn]E([bGaba-SO2‑IQ])SF (reading uncertain) [PTR 6088]
- PKB IC50 [1]: 1.18 µM

Binder: RPR[Orn]SSF [AR 60003-52]
- Activity PKB [1]: 2.5 µM

Binder: RPR[Nva]S[GlyNH2][hLeu] [60005-75]
- % Inhibition PKA [3]: -4%
- % Inhibition PKB I [2]: 70%
- % Inhibition PKB II [2]: 70%

Binder: RPR[Nle]E([βAla-SO2‑IQ])S[Nle] [PTR 6096]
- PKB IC50 [1]: 0.93 µM

Binder: RPRTS[Dap][hLeu] [TY 60002-96]
- Activity PKB [1]: 5 µM

Binder: RPR[Nle]E([βAla-SO2‑IQ])[Abu]F [PTR 6138]
- PKB IC50 [1]: 2 µM

Binder: RPRTE(S‑IQ)SF [PTR 6104]
- IC50 PKB [1]: 0.1 µM
- PKB IC50 [1]: 0.1 µM

Binder: RPR[Nva][GlyNH2][Abu][hLeu] [60006-7B]
- % Inhibition PKB I [1]: 53%
- % Inhibition PKB II [1]: 47%

Binder: RPR[Nle]E([βAla-X1])[Nva]F (not fully specified (C-terminus)) [TY-60020-95]
- IC50 PKA [3]: 2 µM
- % inhibition of kinase activity at 1 µM; PKB-kinase (spa) Assay 1 [2]: 46%
- % inhibition of kinase activity at 1 µM; PKB-kinase (spa) Assay 2 [2]: 90%
- IC50 PKB [2]: 3.3 µM

Binder: RPRTSA[hLeu] [TY 60002-50]
- % Inhibition PKB I [1]: 62%
- Activity PKB [1]: 5 µM

Binder: RPR[Nle]E([βAla-SO2‑IQ])[Dab]F [PTR 6140]
- PKB IC50 [1]: 0.413 µM

Binder: RPRTD(SO2‑IQ)SF [PTR 6130]
- PKB IC50 [1]: 9.5 µM

Binder: RPR[Nle]E([Gly-X1])[Orn]F (not fully specified (C-terminus)) [TY-60020-59]
- % inhibition of kinase activity at 1 µM; PKA-kinase Assay 1 [3]: 92%
- % inhibition of kinase activity at 1 µM; PKA-kinase Assay 2 [3]: 93%
- IC50 PKA [3]: 0.2 µM
- % inhibition of kinase activity at 1 µM; PKB-kinase (spa) Assay 1 [2]: 62%
- % inhibition of kinase activity at 1 µM; PKB-kinase (spa) Assay 2 [2]: 75%
- IC50 PKB [2]: 0.3 µM

Binder: RPR[Nva]TA[hLeu] [60005-84]
- % Inhibition PKA [3]: 7%
- % Inhibition PKB I [2]: 39%
- % Inhibition PKB II [2]: 48%

Binder: RPRTE([Ava-SO2‑IQ])SF [PTR 6090]
- PKB IC50 [1]: 5.6 µM

Binder: RPR[Nva]SAF [60002-38]
- % Inhibition PKA [3]: -2%
- IC50 µM PKA [3]: 80 µM
- % Inhibition PKB I [2]: 43%
- IC50 µM PKB [2]: 18 µM

Binder: RPRTE(SO2‑IQ)SF [PTR 6016]
- Activity PKB [1]: 0.9 µM
- PKB IC50 [1]: 1 µM

Binder: RPR[Nva]E([βAla-SO2‑IQ])A[hLeu] [PTR 6152]
- PKB IC50 [1]: 5 µM

Binder: RPR[Nva]GA[hLeu] [60006-18A]
- % Inhibition PKA [3]: 11%
- IC50 µM PKA [3]: > 100 µM
- % Inhibition PKB I [2]: 47%
- % Inhibition PKB II [2]: 52%
- IC50 µM PKB [2]: 9.45 µM

Binder: RPR[Nva][GlyNH2][Dap][Ph2] (reading uncertain) [60006-11B]
- % Inhibition PKB I [1]: 51%
- % Inhibition PKB II [1]: 44%

Now from value to binder:

- % Inhibition PKB I [1]: 96%
- % Inhibition PKB II [1]: 93%
- IC50 µM PKB [1]: 2.4 µM
Binder: RPRTS[GlyNH2]F [60005-5]

- Activity PKB [1]: 25 µM
- PKB IC50 [1]: 25 µM
Binder: RPRTSE(SO2‑IQ)F [PTR 6014]

- PKB IC50 [1]: 5.54 µM
Binder: RPRTE([βAla-SO2‑IQ])SF [PTR 6082]

- PKB IC50 [1]: 25 µM
Binder: RPR[Nva]E(SO2‑IQ)A[hLeu] [PTR 6150]

- % inhibition of kinase activity at 1 µM; PKB-kinase (spa) Assay 1 [2]: 0%
- % inhibition of kinase activity at 1 µM; PKB-kinase (spa) Assay 2 [2]: 54%
Binder: RPR[Nle]E([βAla-X1])[Nva][hLeu] (not fully specified (C-terminus)) [TY-60020-96]

- % Inhibition PKB I [1]: 42%
- % Inhibition PKB II [1]: 42%
Binder: RPR[Nva][GlyNH2][GltNH2][hLeu] (reading uncertain) [60006-16A]

- % Inhibition PKB I [1]: 47%
- % Inhibition PKB II [1]: 43%
- IC50 µM PKB [1]: 10 µM
Binder: RPR[Nva][GlyNH2]A[hLeu] [60006-5A]

- PKB IC50 [1]: 0.114 µM
Binder: RPR[Nle]E(S‑IQ)SF [PTR 6136]

- Activity PKB [1]: 2.5 µM
Binder: RPRMSSF [AR 60003-50]

- % inhibition of kinase activity at 1 µM; PKB-kinase (spa) Assay 1 [2]: -12%
- % inhibition of kinase activity at 1 µM; PKB-kinase (spa) Assay 2 [2]: 58%
Binder: RPR[Nle]E([βAla-X1])AF (not fully specified (C-terminus)) [TY-60020-93]

- Activity PKB [1]: 3 µM
- PKB IC50 [1]: 4 µM
Binder: RPRTS[Abu]F-{O‑CO‑N‑SO2‑IQ} (not fully specified; printed as Arg-Pro-Arg-Thr-Ser-Abu-Phe-(O-CO-N-SO2-IQ)) [PTR 6013]

- % inhibition of kinase activity at 1 µM; PKA-kinase Assay 1 [3]: 99%
- % inhibition of kinase activity at 1 µM; PKA-kinase Assay 2 [3]: 99%
- IC50 PKA [3]: 0.05 µM
- % inhibition of kinase activity at 1 µM; PKB-kinase (spa) Assay 1 [2]: 80%
- % inhibition of kinase activity at 1 µM; PKB-kinase (spa) Assay 2 [2]: 86%
- IC50 PKB [2]: 0.11 µM
Binder: RPR[Orn]E([Gly-X1])[Dab][hLeu] (not fully specified (C-terminus)) [TY-60020-42]

- % Inhibition PKB I [1]: 44%
- Activity PKB [1]: 5 µM
- IC50 µM PKB [1]: 34 µM
Binder: RPRTS[Abu][hLeu] [TY 60002-73]

- IC50 PKB [1]: 0.02 µM
- PKB IC50 [1]: 0.02 µM
Binder: RPR[Orn]E(SO2‑IQ)SF [PTR 6132]

- % Inhibition PKA [3]: 4%
- % Inhibition PKB I [2]: 43%
- % Inhibition PKB II [2]: 44%
Binder: RPRT[GlyNH2]A[hLeu] [60005-32]

- Activity PKB [1]: > 20 µM
- PKB IC50 [1]: 18 µM
B1: PTR 6020 (peptide)
peptide: RPRTS[Abu]F
modifications: not fully specified (C-terminus); printed as Arg-Pro-Arg-Thr-Ser-Abu-Phe-(O-CO-N-bAla-SO2-IQ); also: -(O-CO-N-bAla-SO2-IQ) on Phe7, attachment unclear

- Activity PKB [1]: 5 µM
Binder: RPRVS[Abu]F [TY 60002-61]

- % inhibition of kinase activity at 1 µM; PKA-kinase Assay 1 [3]: 98%
- % inhibition of kinase activity at 1 µM; PKA-kinase Assay 2 [3]: 99%
- IC50 PKA [3]: 0.05 µM
- % inhibition of kinase activity at 1 µM; PKB-kinase (spa) Assay 1 [2]: 89%
- % inhibition of kinase activity at 1 µM; PKB-kinase (spa) Assay 2 [2]: 93%
- IC50 PKB [2]: 0.12 µM
Binder: RPR[Nle]E([Gly-X1])[Dab][hLeu] (not fully specified (C-terminus)) [TY-60020-58]

- Activity PKB [1]: 3 µM
Binder: RPRRSSF [AR 60003-53]

- PKB IC50 [1]: 0.217 µM
Binder: RPR[Nva]E(S‑IQ)SF [PTR 6134]

- % inhibition of kinase activity at 1 µM; PKA-kinase Assay 1 [3]: 95%
- % inhibition of kinase activity at 1 µM; PKA-kinase Assay 2 [3]: 96%
- IC50 PKA [3]: 0.21 µM
- % inhibition of kinase activity at 1 µM; PKB-kinase (spa) Assay 1 [2]: 92%
- % inhibition of kinase activity at 1 µM; PKB-kinase (spa) Assay 2 [2]: 93%
- IC50 PKB [2]: 0.07 µM
Binder: RPR[Nle]E([Gly-X1])[Dab]F (not fully specified (C-terminus)) [TY-60020-57]

- PKB IC50 [1]: 9 µM
Binder: RPR[Nle]E(SO2‑IQ)SF [PTR 6128]

- % inhibition of kinase activity at 1 µM; PKB-kinase (spa) Assay 1 [2]: 9%
- % inhibition of kinase activity at 1 µM; PKB-kinase (spa) Assay 2 [2]: 31%
Binder: RPR[Nle]E([βAla-X1])A[hLeu] (not fully specified (C-terminus)) [TY-60020-94]
